For assay [1], the target named is Val122Ile transthyretin (V122I TTR) (human) (UniProt P02766). Put plainly: native gel or EMSA.
In assay [2] the target is wild-type transthyretin (WT TTR) (human) (UniProt P02766). Kind of assay: native gel or EMSA. (In general: In EMSA bound probe runs differently from free probe, usually more slowly.)

For the substance “tandem flag-tagged Val122Ile transthyretin (FT2·V122I TTR) (from UniProt P02766 21-147) (natural protein)”, the t50 of formation of the 2 FT2/2 TTR heterotetramer in assay [1] was found to be 2.84 h.

In assay [2], “tandem flag-tagged wild-type transthyretin (FT2·WT TTR) (from UniProt P02766 21-147) (natural protein)” returned a Kex (subunit exchange rate constant) of 0.28 h⁻¹ and a t50 of formation of the 2 FT2/2 TTR heterotetramer of 12.5 h.

The values are drawn from publication PMC4204887.
